Assay results as given in patent US20250295799A1 (Zymeworks, published 2025).

How the values were obtained:
human glypican-3 (GPC3) [1] = biological target: T1, human glypican-3 (GPC3) (human, UniProt P51654 25-554); assay: flow cytometry on CHO-S cells transfected with human GPC3;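 also: antibody binding to transiently transfected CHO-S cells after 24 hours at 4 °C, read as geometric mean fluorescence of anti-human AF647 in live cells, fitted against antibody concentration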
T1 construct: Endogenous on JHH-7, JHH-5, HepG2 and NCI-H446 tumour cells, or transiently expressed on CHO-S cells from a pTT5 plasmid; also called hGPC3; huGPC3
Procedure: (§1) Briefly, CHO—S cells were transiently transfected for −24 hours with a pTT5-based expression plasmid encoding human GPC3 or cynomolgus monkey GPC3, 0.5 μg DNA per 1 million cells, using the Neon™ Transfection System (Thermo Fisher Scientific Corp., Waltham, MA), to transiently express human or cynomolgus monkey GPC3. Cells transfected with GFP were used as negative transfection controls. Following transfection, cells were seeded at 50,000 cells/well in V-bottom 96-well plates and treated with antibody for 24 hours at 4° C. to prevent internalization. […] Following incubation and washing, fluorescence was detected by flow cytometry on a BD LSRFortessa™ Cell Analyzer (BD Biosciences, Franklin Lake, NJ) with 1,000 minimum events collected per well. AF647/APC-A GeoMean (fluorescence signal geometric mean, proportional to anti-Human AF647 binding) in live cell population was plotted against antibody concentration using GraphPad Prism Version 9 (GraphPad Software, San Diego, CA). The Bmax and Kd values were derived from the “Specific binding with Hill slope” nonlinear regression curve fit in GraphPad Prism Version 9.

human glypican-3 (GPC3) [2] = biological target: T1, human glypican-3 (GPC3); assay: flow cytometry on JHH-7 cells (GPC3-high);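 also: antibody binding at 4 °C for 24 h, detected with anti-human AF647 secondary, geometric mean fluorescence of live cells versus antibody concentration, fitted as specific binding with Hill slope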
Procedure: (§2) Briefly, cells were seeded at 50,000 cells/well in V-bottom 96-well plates and treated with antibody for 24 hours at 4° C. to prevent internalization. […] Following incubation and washing, fluorescence was detected by flow cytometry on a BD LSRFortessa™ Cell Analyzer (BD Biosciences, Franklin Lake, NJ) with 1,000 minimum events collected per well. AF647/APC-A GeoMean (fluorescence signal geometric mean, proportional to anti-Human AF647 binding) in live cell population was plotted against antibody concentration using GraphPad Prism Version 9 (GraphPad Software, San Diego, CA). The Bmax, Curve Hill Slope (h) and Kd values were derived from the “Specific binding with Hill slope” nonlinear regression curve fit in GraphPad Prism Version 9.

human glypican-3 (GPC3) [3] = biological target: T1, human glypican-3 (GPC3); assay: cell-based or functional assay
[4] = biological target: T2, cynomolgus monkey glypican-3 (GPC3) (cynomolgus monkey, UniProt A5A6P7 25-554 (Pan troglodytes entry)); assay: flow cytometry on CHO-S cells transfected with cynomolgus GPC3;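 also: antibodies incubated 24 h at 4 °C with transiently transfected cells, binding read as AF647 geometric mean fluorescence of live cells, GFP-transfected cells as negative control, Hill-slope specific-binding fit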
T2 construct: Transiently expressed on CHO-S cells; also called cynoGPC3; CynoGPC3-CHO
Procedure: as §1

human glypican-3 (GPC3) [5] = biological target: T1, human glypican-3 (GPC3); assay: flow cytometry on JHH-5 cells (GPC3-mid);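 also: antibody binding to cells at 4 °C for 24 h, detected with anti-human AF647 as geometric mean fluorescence of live cells versus antibody concentration, fitted by specific binding with Hill slope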
Procedure: as §2

[6] = biological target: T3, recombinant human GPC3 (glypican-3) (human, UniProt P51654 25-559); assay: SPR (Biacore T200), antibody captured by anti-Fc, GPC3 injected
T3 construct: also called huGPC3; hGPC3
Procedure: (§3) CM5 Series S sensor chip, Biacore™ amine coupling kit (NHS, EDC and 1 M ethanolamine), and 10 mM sodium acetate buffers were purchased from Cytiva Life Sciences (Mississauga, ON, Canada). PBS running buffer with 0.05% Tween20 (PBST) was purchased from Teknova Inc. (Hollister, CA). Antigens: recombinant human and cynomolgus GPC3 was purchased from ACROBiosystems (Newark, DE) and SEC purified on a Superdex 200 10/300 GL column (Cytiva) in PBST running buffer at 0.8 mL/min.
(§4) Screening of the antibodies for binding to GPC3 antigen was conducted via anti-Fc capture of antibodies, followed by the injection of five concentrations of GPC3. The anti-Fc surface was prepared on a CM5 Series S sensor chip by standard amine coupling methods as described by the manufacturer (Cytiva Life Sciences, Mississauga, ON, Canada). […] Approximately 150-400 RUs of each antibody (5-20 μg/mL) were captured on the goat anti-human IgG surface by injecting at 10 μL/min for 60s. Using single-cycle kinetics, five concentrations of a two-fold dilution series of human or cynomolgus GPC3 starting at 40 nM, 20 nM, 10 nM, or 5 nM depending on the antibody, with a blank buffer control were injected at 20 μL/min for 180s of contact time, followed by 180 s dissociation phase, resulting in sensorgrams with a buffer blank reference. The anti-Fc surface was regenerated to prepare for the next injection cycle by one pulse of 10 mM glycine/HCl pH 1.5 for 120 s at 40 μL/min. Blank-subtracted sensorgrams were analyzed and fit to the 1:1 Langmuir binding model using Biacore™ T200 Evaluation Software v3.2.

[7] = biological target: T3, recombinant human GPC3 (glypican-3); assay: SPR (Biacore T200), antibody captured by anti-Fc, GPC3 injected, single-cycle kinetics, 1:1 fit; average
Procedure: as §3, §4

[8] = biological target: T4, recombinant cynomolgus GPC3 (glypican-3) (cynomolgus monkey, UniProt A0A2K5VK50 24-558); assay: as above
T4 construct: also called cynoGPC3
Procedure: as §3, §4

[9] = biological target: T4, recombinant cynomolgus GPC3 (glypican-3); assay: SPR; Kd on human GPC3 divided by Kd on cynomolgus GPC3
Procedure: as §3, §4
For JHH-5 Internalization (MFI) in this document: test concentration or dose not given here.
For JHH-7 Internalization (MFI) in this document: test concentration or dose not given here.

Row | Binder | Bmax (MFI) (human glypican-3 (GPC3) [1]) | Kd (human glypican-3 (GPC3) [1]) | Bmax (MFI) (human glypican-3 (GPC3) [2]) | Kd (human glypican-3 (GPC3) [2]) | JHH-5 Internalization (MFI) (human glypican-3 (GPC3) [3]) | JHH-7 Internalization (MFI) (human glypican-3 (GPC3) [3]) | Bmax (MFI) [4] | Kd [4] | Bmax (MFI) (human glypican-3 (GPC3) [5]) | Kd (human glypican-3 (GPC3) [5]) | Avg % binding huGPC3 (RU observed/theoretical) [6] | Kd [7] | Kd [8] | Kd Fold difference (hu/cyno) [9]
1 | H18L6_LC_G34H mAb, v40205 (antibody, human IgG1, kappa, V domains shown, M3-H18L6 chains with the stated light chain point mutation, IgG1/kappa) VH: QVQLVQSGAEVKKPGSSVKVSCKASGYTFTDYEMHWVKQAPGHGLEWIGAIDPETGDTAYNQKFKGKATLTADTSTSTAYMELSSLRSEDTAVYYCTRYFSFAYWGQGTLVTVSS VL: EIVLTQSPATLSLSPGERATISCRSSQSLRHSNHNTYLQWYQQKPGQAPRLLIYKVSNRFSGVPARFSGSGSGTDFTLTISSLEPEDFAVYFCYQSKHVPYTFGGGTKVEIKR | 2460 MFI | 0.1 nM | 12500 MFI | 0.43 nM | 9170 MFI | 7320 MFI | 2990 MFI | 0.14 nM | 4580 MFI | 0.16 nM | – | – | – | –
2 | v40203, H18L6_LC_G34D mAb (antibody, human IgG1, kappa, V domains shown) VH: QVQLVQSGAEVKKPGSSVKVSCKASGYTFTDYEMHWVKQAPGHGLEWIGAIDPETGDTAYNQKFKGKATLTADTSTSTAYMELSSLRSEDTAVYYCTRYFSFAYWGQGTLVTVSS VL: EIVLTQSPATLSLSPGERATISCRSSQSLRHSNDNTYLQWYQQKPGQAPRLLIYKVSNRFSGVPARFSGSGSGTDFTLTISSLEPEDFAVYFCYQSKHVPYTFGGGTKVEIKR | – | – | – | – | – | – | – | – | – | – | 44.1% | 13.7 nM | 11.5 nM | 1.2 fold
3 | H18L6_LC_N33V mAb, v40215 (antibody, human IgG1, kappa, V domains shown, M3-H18L6 chains with the stated light chain point mutation, IgG1/kappa) VH: QVQLVQSGAEVKKPGSSVKVSCKASGYTFTDYEMHWVKQAPGHGLEWIGAIDPETGDTAYNQKFKGKATLTADTSTSTAYMELSSLRSEDTAVYYCTRYFSFAYWGQGTLVTVSS VL: EIVLTQSPATLSLSPGERATISCRSSQSLRHSVGNTYLQWYQQKPGQAPRLLIYKVSNRFSGVPARFSGSGSGTDFTLTISSLEPEDFAVYFCYQSKHVPYTFGGGTKVEIKR | – | – | 9540 MFI | 1.01 nM | – | – | – | – | – | – | – | – | – | –
4 | H18L6_LC_G34V mAb, v40211 (antibody, human IgG1, kappa, V domains shown, M3-H18L6 chains with the stated light chain point mutation, IgG1/kappa) VH: QVQLVQSGAEVKKPGSSVKVSCKASGYTFTDYEMHWVKQAPGHGLEWIGAIDPETGDTAYNQKFKGKATLTADTSTSTAYMELSSLRSEDTAVYYCTRYFSFAYWGQGTLVTVSS VL: EIVLTQSPATLSLSPGERATISCRSSQSLRHSNVNTYLQWYQQKPGQAPRLLIYKVSNRFSGVPARFSGSGSGTDFTLTISSLEPEDFAVYFCYQSKHVPYTFGGGTKVEIKR | 2100 MFI | 0.11 nM | 7420 MFI | 0.4 nM | 3560 MFI | 3330 MFI | 2640 MFI | 0.17 nM | 2940 MFI | 0.24 nM | – | – | – | –
5 | H18L6_LC_G34S mAb, v40210 (antibody, human IgG1, kappa, V domains shown, M3-H18L6 chains with the stated light chain point mutation, IgG1/kappa) VH: QVQLVQSGAEVKKPGSSVKVSCKASGYTFTDYEMHWVKQAPGHGLEWIGAIDPETGDTAYNQKFKGKATLTADTSTSTAYMELSSLRSEDTAVYYCTRYFSFAYWGQGTLVTVSS VL: EIVLTQSPATLSLSPGERATISCRSSQSLRHSNSNTYLQWYQQKPGQAPRLLIYKVSNRFSGVPARFSGSGSGTDFTLTISSLEPEDFAVYFCYQSKHVPYTFGGGTKVEIKR | 2360 MFI | 0.06 nM | 10600 MFI | 0.42 nM | 8950 MFI | 8900 MFI | 2970 MFI | 0.09 nM | 4140 MFI | 0.1 nM | – | – | – | –
6 | H18L6_LC_G34T mAb, v40209 (antibody, human IgG1, kappa, V domains shown, M3-H18L6 chains with the stated light chain point mutation, IgG1/kappa) VH: QVQLVQSGAEVKKPGSSVKVSCKASGYTFTDYEMHWVKQAPGHGLEWIGAIDPETGDTAYNQKFKGKATLTADTSTSTAYMELSSLRSEDTAVYYCTRYFSFAYWGQGTLVTVSS VL: EIVLTQSPATLSLSPGERATISCRSSQSLRHSNTNTYLQWYQQKPGQAPRLLIYKVSNRFSGVPARFSGSGSGTDFTLTISSLEPEDFAVYFCYQSKHVPYTFGGGTKVEIKR | 2320 MFI | 0.11 nM | 10900 MFI | 0.42 nM | 9280 MFI | 9040 MFI | 2840 MFI | 0.14 nM | 4130 MFI | 0.11 nM | – | – | – | –
7 | H18L6_LC_N33E mAb, v40213 (antibody, human IgG1, kappa, V domains shown, M3-H18L6 chains with the stated light chain point mutation, IgG1/kappa) VH: QVQLVQSGAEVKKPGSSVKVSCKASGYTFTDYEMHWVKQAPGHGLEWIGAIDPETGDTAYNQKFKGKATLTADTSTSTAYMELSSLRSEDTAVYYCTRYFSFAYWGQGTLVTVSS VL: EIVLTQSPATLSLSPGERATISCRSSQSLRHSEGNTYLQWYQQKPGQAPRLLIYKVSNRFSGVPARFSGSGSGTDFTLTISSLEPEDFAVYFCYQSKHVPYTFGGGTKVEIKR | 1860 MFI | 0.25 nM | – | – | 1200 MFI | 1220 MFI | 2320 MFI | 0.22 nM | 1940 MFI | 3.39 nM | – | – | – | –

The remaining lines, values ahead:

Row | Bmax (MFI) (human glypican-3 (GPC3) [1]) | Kd (human glypican-3 (GPC3) [1]) | Bmax (MFI) (human glypican-3 (GPC3) [2]) | Kd (human glypican-3 (GPC3) [2]) | JHH-5 Internalization (MFI) (human glypican-3 (GPC3) [3]) | JHH-7 Internalization (MFI) (human glypican-3 (GPC3) [3]) | Bmax (MFI) [4] | Kd [4] | Bmax (MFI) (human glypican-3 (GPC3) [5]) | Kd (human glypican-3 (GPC3) [5]) | Avg % binding huGPC3 (RU observed/theoretical) [6] | Kd [7] | Kd [8] | Kd Fold difference (hu/cyno) [9] | Binder
8 | – | – | – | – | – | – | – | – | – | – | 42% | 11.9 nM | 7.67 nM | 1.55 fold | v40206, H18L6_LC_G34R mAb (antibody, human IgG1, kappa, V domains shown) VH: QVQLVQSGAEVKKPGSSVKVSCKASGYTFTDYEMHWVKQAPGHGLEWIGAIDPETGDTAYNQKFKGKATLTADTSTSTAYMELSSLRSEDTAVYYCTRYFSFAYWGQGTLVTVSS VL: EIVLTQSPATLSLSPGERATISCRSSQSLRHSNRNTYLQWYQQKPGQAPRLLIYKVSNRFSGVPARFSGSGSGTDFTLTISSLEPEDFAVYFCYQSKHVPYTFGGGTKVEIKR
9 | – | – | – | – | – | – | – | – | – | – | 43.5% | 10.4 nM | 8.79 nM | 1.19 fold | v40205, H18L6_LC_G34H mAb (antibody, human IgG1, kappa, V domains shown, no number given for this variant) VH: QVQLVQSGAEVKKPGSSVKVSCKASGYTFTDYEMHWVKQAPGHGLEWIGAIDPETGDTAYNQKFKGKATLTADTSTSTAYMELSSLRSEDTAVYYCTRYFSFAYWGQGTLVTVSS VL: EIVLTQSPATLSLSPGERATISCRSSQSLRHSNHNTYLQWYQQKPGQAPRLLIYKVSNRFSGVPARFSGSGSGTDFTLTISSLEPEDFAVYFCYQSKHVPYTFGGGTKVEIKR
10 | – | – | – | – | – | – | – | – | – | – | 42.2% | 11.5 nM | 7.29 nM | 1.58 fold | v40207, H18L6_LC_G34K mAb (antibody, human IgG1, kappa, V domains shown) VH: QVQLVQSGAEVKKPGSSVKVSCKASGYTFTDYEMHWVKQAPGHGLEWIGAIDPETGDTAYNQKFKGKATLTADTSTSTAYMELSSLRSEDTAVYYCTRYFSFAYWGQGTLVTVSS VL: EIVLTQSPATLSLSPGERATISCRSSQSLRHSNKNTYLQWYQQKPGQAPRLLIYKVSNRFSGVPARFSGSGSGTDFTLTISSLEPEDFAVYFCYQSKHVPYTFGGGTKVEIKR
11 | – | – | – | – | – | – | – | – | – | – | 46.3% | 10.6 nM | 7.18 nM | 1.48 fold | v40208, H18L6_LC_G34Q mAb (antibody, human IgG1, kappa, V domains shown) VH: QVQLVQSGAEVKKPGSSVKVSCKASGYTFTDYEMHWVKQAPGHGLEWIGAIDPETGDTAYNQKFKGKATLTADTSTSTAYMELSSLRSEDTAVYYCTRYFSFAYWGQGTLVTVSS VL: EIVLTQSPATLSLSPGERATISCRSSQSLRHSNQNTYLQWYQQKPGQAPRLLIYKVSNRFSGVPARFSGSGSGTDFTLTISSLEPEDFAVYFCYQSKHVPYTFGGGTKVEIKR
12 | – | – | – | – | – | – | – | – | – | – | 43% | 14.9 nM | 12.5 nM | 1.19 fold | v40204, H18L6_LC_G34E mAb (antibody, human IgG1, kappa, V domains shown, no number given for this variant) VH: QVQLVQSGAEVKKPGSSVKVSCKASGYTFTDYEMHWVKQAPGHGLEWIGAIDPETGDTAYNQKFKGKATLTADTSTSTAYMELSSLRSEDTAVYYCTRYFSFAYWGQGTLVTVSS VL: EIVLTQSPATLSLSPGERATISCRSSQSLRHSNENTYLQWYQQKPGQAPRLLIYKVSNRFSGVPARFSGSGSGTDFTLTISSLEPEDFAVYFCYQSKHVPYTFGGGTKVEIKR
13 | – | – | – | – | – | – | – | – | – | – | 51.9% | 7.14 nM | 4.54 nM | – | v38592, M3-H18L6 (WT) mAb (antibody, human IgG1, kappa, Same as v37574 but the heavy chain cDNA encodes a C-terminal lysine; also called wild-type M3-H18L6) heavy: not shown light: EIVLTQSPATLSLSPGERATISCRSSQSLRHSNGNTYLQWYQQKPGQAPRLLIYKVSNRFSGVPARFSGSGSGTDFTLTISSLEPEDFAVYFCYQSKHVPYTFGGGTKVEIKRTVAAPSVFIFPPSDEQLKSGTASVVCLLNNFYPREAKVQWKVDNALQSGNSQESVTEQDSKDSTYSLSSTLTLSKADYEKHKVYACEVTHQGLSSPVTKSFNRGEC
14 | 2660 MFI | 0.08 nM | 14800 MFI | 0.31 nM | 8770 MFI | 6560 MFI | 3280 MFI | 0.09 nM | 5590 MFI | 0.19 nM | – | – | – | – | codrituzumab (v37575) (antibody, human IgG1, kappa, V domains shown, also called GC33; RG-7686) VH: QVQLVQSGAEVKKPGASVKVSCKASGYTFTDYEMHWVRQAPGQGLEWMGALDPKTGDTAYSQKFKGRVTLTADKSTSTAYMELSSLTSEDTAVYYCTRFYSYTYWGQGTLVTVSS VL: DVVMTQSPLSLPVTPGEPASISCRSSQSLVHSNRNTYLHWYLQKPGQSPQLLIYKVSNRFSGVPDRFSGSGSGTDFTLKISRVEAEDVGVYYCSQNTHVPPTFGQGTKLEIKR
